Measured values: patent US20190010233A1
“And” between values parts separate entries of the source, which are not always exact repeats. Identical values can stand only once.

How the values were obtained:
[1] = target: full length human PD-L1 on cells (human) (UniProt Q9NZQ7); experiment: FACS CHOK1-hPD-L1, 0.0003 nM mAb
[2] = target: cyno PD-L1^ECD-hFc protein (cyno) (UniProt G7PSE7); experiment: ELISA, 100 nM mAb
[3] = target: human PD-L1^ECD-hFc protein (human) (UniProt Q9NZQ7); experiment: ELISA, 100 nM mAb
[4] = target: full length cyno PD-L1 on cells (cyno) (UniProt G7PSE7); experiment: FACS CHO-K1-cPD-L1, 10 nM mAb
[5] = target: full length cyno PD-L1 on cells (cyno) (UniProt G7PSE7); experiment: FACS CHO-K1-cPD-L1, 0.01 nM mAb
[6] = target: full length human PD-L1 on cells (human) (UniProt Q9NZQ7); experiment: FACS CHOK1-hPD-L1, 0.03 nM mAb
[7] = target: cyno PD-L1^ECD-hFc protein (cyno) (UniProt G7PSE7); experiment: ELISA, 0.370 nM mAb
[8] = target: human PD-L1^ECD-hFc protein (human) (UniProt Q9NZQ7); experiment: ELISA, 0.370 nM mAb
[9] = target: full length human PD-L1 on cells (human) (UniProt Q9NZQ7); experiment: FACS CHO-K1-hPD-L1, 0.1 nM mAb
[10] = target: full length human PD-L1 on cells (human) (UniProt Q9NZQ7); experiment: FACS CHOK1-hPD-L1, 30 nM mAb
[11] = target: full length cyno PD-L1 on cells (cyno) (UniProt G7PSE7); experiment: FACS CHO-K1-cPD-L1, 0.003 nM mAb
[12] = target: full length cyno PD-L1 on cells (cyno) (UniProt G7PSE7); experiment: FACS CHO-K1-cPD-L1, 0.001 nM mAb
[13] = target: full length cyno PD-L1 on cells (cyno) (UniProt G7PSE7); experiment: FACS CHO-K1-cPD-L1, 3.70 nM mAb
[14] = target: cyno PD-L1^ECD-hFc protein (cyno) (UniProt G7PSE7); experiment: ELISA, 0.01 nM mAb
[15] = target: human PD-L1^ECD-hFc protein (human) (UniProt Q9NZQ7); experiment: ELISA, 0.01 nM mAb
[16] = target: cyno PD-L1^ECD-hFc protein (cyno) (UniProt G7PSE7); experiment: ELISA, 0.3 nM mAb
[17] = target: human PD-L1^ECD-hFc protein (human) (UniProt Q9NZQ7); experiment: ELISA, 0.3 nM mAb
[18] = target: full length cyno PD-L1 on cells (cyno) (UniProt G7PSE7); experiment: FACS CHO-K1-cPD-L1, 0.1 nM mAb
[19] = target: full length cyno PD-L1 on cells (cyno) (UniProt G7PSE7); experiment: FACS CHO-K1-cPD-L1, 30 nM mAb
[20] = target: cyno PD-L1^ECD-hFc protein (cyno) (UniProt G7PSE7); experiment: ELISA, 0.041 nM mAb
[21] = target: human PD-L1^ECD-hFc protein (human) (UniProt Q9NZQ7); experiment: ELISA, 0.041 nM mAb
[22] = target: cyno PD-L1^ECD-hFc protein (cyno) (UniProt G7PSE7); experiment: ELISA, 0.1 nM mAb
[23] = target: human PD-L1^ECD-hFc protein (human) (UniProt Q9NZQ7); experiment: ELISA, 0.1 nM mAb
[24] = target: full length cyno PD-L1 on cells (cyno) (UniProt G7PSE7); experiment: FACS CHO-K1-cPD-L1, 0.3 nM mAb
[25] = target: full length human PD-L1 on cells (human) (UniProt Q9NZQ7); experiment: FACS CHOK1-hPD-L1, 0.3 nM mAb
[26] = target: cyno PD-L1^ECD-hFc protein (cyno) (UniProt G7PSE7); experiment: ELISA, 10 nM mAb
[27] = target: cyno PD-L1^ECD-hFc protein (cyno) (UniProt G7PSE7); experiment: ELISA, 0.0003 nM mAb
[28] = target: human PD-L1^ECD-hFc protein (human) (UniProt Q9NZQ7); experiment: ELISA, 0.0003 nM mAb
[29] = target: full length human PD-L1 on cells (human) (UniProt Q9NZQ7); experiment: FACS CHO-K1-hPD-L1, 100.00 nM mAb
[30] = target: cyno PD-L1^ECD-hFc protein (cyno) (UniProt G7PSE7); experiment: ELISA, 0.00003 nM mAb
[31] = target: human PD-L1^ECD-hFc protein (human) (UniProt Q9NZQ7); experiment: ELISA, 0.00003 nM mAb
[32] = target: cyno PD-L1^ECD-hFc protein (cyno) (UniProt G7PSE7); experiment: ELISA, 0.03 nM mAb
[33] = target: human PD-L1^ECD-hFc protein (human) (UniProt Q9NZQ7); experiment: ELISA, 0.03 nM mAb
[34] = target: full length cyno PD-L1 on cells (cyno) (UniProt G7PSE7); experiment: FACS CHO-K1-cPD-L1, 0.41 nM mAb
[35] = target: human PD-L1^ECD-hFc protein (human) (UniProt Q9NZQ7); experiment: ELISA, 30 nM mAb
[36] = target: cyno PD-L1^ECD-hFc protein (cyno) (UniProt G7PSE7); experiment: ELISA, 10 nM mAb; remark: listed apart in the source
[37] = target: human PD-L1^ECD-hFc protein (human) (UniProt Q9NZQ7); experiment: ELISA, 10 nM mAb
[38] = target: full length cyno PD-L1 on cells (cyno) (UniProt G7PSE7); experiment: FACS CHO-K1-cPD-L1, 11.11 nM mAb
[39] = target: full length cyno PD-L1 on cells (cyno) (UniProt G7PSE7); experiment: FACS CHO-K1-cPD-L1, 100.00 nM mAb
[40] = target: full length human PD-L1 on cells (human) (UniProt Q9NZQ7); experiment: FACS CHOK1-hPD-L1, 0.003 nM mAb

cyno PD-L1^ECD-hFc protein (cyno), sequence (G7PSE7 entry or part of it limits assumed): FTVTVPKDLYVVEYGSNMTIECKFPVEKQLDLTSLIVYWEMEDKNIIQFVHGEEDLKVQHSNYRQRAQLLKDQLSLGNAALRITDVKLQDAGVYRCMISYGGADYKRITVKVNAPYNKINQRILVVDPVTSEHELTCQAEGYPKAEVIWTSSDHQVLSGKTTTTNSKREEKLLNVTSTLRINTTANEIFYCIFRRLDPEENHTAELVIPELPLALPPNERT
human PD-L1^ECD-hFc protein (human), sequence (Q9NZQ7 19-239): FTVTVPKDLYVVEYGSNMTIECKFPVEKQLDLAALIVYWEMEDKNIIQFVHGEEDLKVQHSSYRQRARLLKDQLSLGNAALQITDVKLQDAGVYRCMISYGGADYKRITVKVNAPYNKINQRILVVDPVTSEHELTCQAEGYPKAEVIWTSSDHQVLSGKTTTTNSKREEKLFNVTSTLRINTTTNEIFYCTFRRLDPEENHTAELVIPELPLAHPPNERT
full length human PD-L1 on cells (human), sequence (Q9NZQ7 19-290 limits assumed): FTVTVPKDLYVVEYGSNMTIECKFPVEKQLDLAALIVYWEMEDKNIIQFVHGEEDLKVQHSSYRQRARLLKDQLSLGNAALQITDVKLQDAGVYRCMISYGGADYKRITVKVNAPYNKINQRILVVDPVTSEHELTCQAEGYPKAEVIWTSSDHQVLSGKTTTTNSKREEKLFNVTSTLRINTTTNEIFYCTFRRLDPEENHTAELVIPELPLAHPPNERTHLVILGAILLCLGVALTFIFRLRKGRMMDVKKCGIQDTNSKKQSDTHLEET
full length cyno PD-L1 on cells (cyno), sequence (G7PSE7 entry or part of it limits assumed): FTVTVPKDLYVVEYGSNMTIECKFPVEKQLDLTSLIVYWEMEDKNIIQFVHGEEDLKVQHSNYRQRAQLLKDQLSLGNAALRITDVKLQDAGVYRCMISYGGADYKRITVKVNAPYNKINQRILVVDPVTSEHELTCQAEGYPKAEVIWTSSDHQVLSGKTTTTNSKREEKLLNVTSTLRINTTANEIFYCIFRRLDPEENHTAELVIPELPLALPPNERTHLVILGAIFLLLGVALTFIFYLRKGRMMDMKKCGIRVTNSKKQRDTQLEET

Question: Which results are given for IgG control (human IgG) (antibody)?
Answer: Mean fluorescence intensity [1]: 2.79; OD450 nm [2]: 0.398; OD450 nm [3]: 0.767; Mean fluorescence intensity [4]: 1.95; Mean fluorescence intensity [5]: 1.87; Mean fluorescence intensity [6]: 2.92; OD450 nm [7]: 0.12; OD450 nm [8]: 0.12; Mean fluorescence intensity [9]: 2.55; Mean fluorescence intensity [10]: 5.73; Mean fluorescence intensity [11]: 3.62; Mean fluorescence intensity [12]: 1.9; Mean fluorescence intensity [13]: 2.73; OD450 nm [14]: 0.0987; OD450 nm [15]: 0.154; OD450 nm [16]: 0.28; OD450 nm [17]: 0.293; Mean fluorescence intensity [18]: 2.2; Mean fluorescence intensity [19]: 4.12; OD450 nm [20]: 0.11; OD450 nm [21]: 0.11; OD450 nm [22]: 0.0967; OD450 nm [23]: 0.149; Mean fluorescence intensity [24]: 3.73; Mean fluorescence intensity [25]: 3.16; OD450 nm [26]: 0.134; OD450 nm [27]: 0.273; OD450 nm [28]: 0.338; Mean fluorescence intensity [29]: 2.7; OD450 nm [30]: 0.31; OD450 nm [31]: 0.296; OD450 nm [32]: 0.276; OD450 nm [33]: 0.273; Mean fluorescence intensity [34]: 2.69; OD450 nm [35]: 0.12; OD450 nm [36]: 0.15; OD450 nm [37]: 0.225; Mean fluorescence intensity [38]: 2.93; Mean fluorescence intensity [39]: 3.33 and 8.11; Mean fluorescence intensity [40]: 3.03
